Test results published in paper PMC9674253.

How the values were obtained:
[1] = biological target: NPAS4 (1-348);ARNT (82-465) (mouse;mouse, UniProt Q8BGD7;P53762 1-348;82-465, |); assay: fluorescence polarization
[2] = biological target: NPAS4 (1-348);ARNT2 (50-439) (mouse;mouse, UniProt Q8BGD7;Q61324 1-348;50-439, |); assay: fluorescence polarization
Chain of NPAS4 (1-348);ARNT2 (50-439) (Q8BGD7 1-348, chain 1 of 2): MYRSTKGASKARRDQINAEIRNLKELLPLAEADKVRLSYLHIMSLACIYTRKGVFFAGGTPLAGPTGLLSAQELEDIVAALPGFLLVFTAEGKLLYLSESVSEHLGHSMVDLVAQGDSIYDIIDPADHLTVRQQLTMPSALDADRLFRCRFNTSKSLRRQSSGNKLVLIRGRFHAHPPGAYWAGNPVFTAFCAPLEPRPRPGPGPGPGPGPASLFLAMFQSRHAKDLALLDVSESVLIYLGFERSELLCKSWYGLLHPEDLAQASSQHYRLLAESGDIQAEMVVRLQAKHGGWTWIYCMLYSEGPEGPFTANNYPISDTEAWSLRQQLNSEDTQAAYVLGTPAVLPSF
Chain of NPAS4 (1-348);ARNT2 (50-439) (Q61324 50-439, chain 2 of 2): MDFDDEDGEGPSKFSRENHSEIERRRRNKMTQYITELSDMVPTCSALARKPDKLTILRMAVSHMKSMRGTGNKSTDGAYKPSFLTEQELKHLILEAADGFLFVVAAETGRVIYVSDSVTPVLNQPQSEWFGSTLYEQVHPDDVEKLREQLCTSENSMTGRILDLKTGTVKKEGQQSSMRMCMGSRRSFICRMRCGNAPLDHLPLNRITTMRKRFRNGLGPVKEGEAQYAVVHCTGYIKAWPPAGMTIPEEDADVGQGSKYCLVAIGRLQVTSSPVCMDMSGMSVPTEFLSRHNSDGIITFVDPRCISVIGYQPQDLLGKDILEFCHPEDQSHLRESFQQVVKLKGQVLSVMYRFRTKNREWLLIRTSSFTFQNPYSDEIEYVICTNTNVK

Chain of NPAS4 (1-348);ARNT (82-465) (Q8BGD7 1-348, chain 1 of 2): as the sequence (Q8BGD7 1-348, chain 1 of 2) above
Chain of NPAS4 (1-348);ARNT (82-465) (P53762 82-465, chain 2 of 2): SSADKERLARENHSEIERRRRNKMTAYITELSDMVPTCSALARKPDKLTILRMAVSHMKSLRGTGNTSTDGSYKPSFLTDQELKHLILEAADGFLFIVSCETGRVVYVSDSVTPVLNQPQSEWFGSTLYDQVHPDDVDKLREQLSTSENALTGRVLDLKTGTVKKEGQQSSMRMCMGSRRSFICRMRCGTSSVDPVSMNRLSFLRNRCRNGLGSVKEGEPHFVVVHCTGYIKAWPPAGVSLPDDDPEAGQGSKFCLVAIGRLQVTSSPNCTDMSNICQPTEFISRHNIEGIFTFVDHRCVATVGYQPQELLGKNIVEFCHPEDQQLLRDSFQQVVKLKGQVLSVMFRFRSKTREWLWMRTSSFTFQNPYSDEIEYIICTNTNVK

B1: 21-mer NPAS4 response element (FP) (dsDNA)
DNA 1: GGATGAGGTCGTGAGTGATGA
DNA 2: TCATCACTCACGACCTCATCC
- Kd [1]: 13.1 ± 0.4 nM
- Kd [2]: 46.8 ± 3.9 nM
